Assay results from the NTF2 design screens of Basanta et al. (2020).

test: protease stability score; higher = more stable; yeast display proteolysis, trypsin and chymotrypsin;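 also: log10 excess protease needed over predicted unfolded state with 0 meaning unfolded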

Row | Sequence | protease stability score
1 | DDHAVSFVEEMLRIEKTGNHQQLENKADPNAEAEYGDKTYHGMEDFARELVRQLREWRLDYKSIDVQAHNGRAEVDVDVLVDIDGEPVRFRVTIVFQQHNGRLKNQSMRMSTDQLRKQQR | 0.121
2 | DDHDAKRAAKHVENGDPEQITNLFDEDARVHIGDFRIHGREDAKKWADHYRDQVDHLEYEDYRISGDTVVIVFQINVNGKRVRLRLEFRVHNGRIKEMTVEFTSEDDEKRVLKIMS | 0.531
3 | DDHDRLRKFFETLLKNYQHNNEEHATKMADKDARFDVGDKTVNGNKQNAKEMAERVRESDHYHAKIQSYRVEGDKAHFQFVASVVHNGRERHFKVQMELKLHNGSLKIVRLRNS | 0.966
4 | DDHDRQKLSEWYKNYESGDPDKLVDMADPNARFQYGDKHVRGREQIHRQWRKELTEQRFTVVKMSASDHNGVIDMKFTNEVEHNGRPDRRKFSFTFRVRNGQAQEFDLQTTK | 0.014
5 | DDHEEASELIRDLNEAWKEGDPDRASKNFDPNARIEVGDRTFRGQEQVKRMADELKEKYDEFTVDIKRLSLHNGSITVNARVVYHNNGRRHDRTYVVILHKHNGRIKIKNMHEQ | 0.331
6 | DDHEKANKVVSKLVEANRTGDEKKFVDMADPNVQLNIGDQRVHGREQAEKFARDFHTRFDHLDVKIKDVDVQGEKLELDVKMKVHFDGRTHEINMRLELQRNNGRVKLVRLHIP | 0.097
7 | DDHEQRSLQELVKKNDEEKFAEQADKDVKVDVGDSRIHGREEWRKFVKRLKDRADHIEIHSVKADGEKLEVHREMTVDGRRVVYYVRYEVHNGRIKSISLQARTEDDQRKLQHVLS | 0.919
8 | DDHETAKQIMETWKQIVEDGDEHQAQRMADPNVHANIGDHTVHGKEEFKKMLRTWRDRVDRIEVTFRHIEVTGNKLIVVVDVRLDVNGKEIHVHMVLNAQKQGDEAKVETVVVE | 1.24
9 | DDHEVAKQNMRDLLTILNTGDPDKAEEMADKDVKIDVGDKRYHGQTKMREWIEELRKRYDHIHADVKSVEVHNGQVRADIEMVFNHNGREETVKVDVKAELDGDKVKIENLVLR | 1.3
10 | DDHKAQRAVDIAKNWLTGNEEELQKQASEEVRFDYGDKTVHGMTEARTQAKRFHERMRADAKVHSFDVTGDKAVVNMVFEQEHNGRPTNRRYRVILDLHNGKVKEVQIDDDG | -0.069
11 | DDHKLAEDIIQEFHEAMERGDPDQIQKLADKDVTINYGDKRIRGRETATRFWREVMDRIDHVEVTIRELRVKGDKIQFVVLINQNHNGQTTNRHVEASVEVHGDKYRNKSFQFQ | 0.35
12 | DDHKNRERAKEIAKQFQHNNPEDLRKMFDKDARLDLGSQQYHGREDVNRALSHLSKRIDHYEIKDIKVKGDNIDIQAVVTVNGRRYSLKIILRFSNGKAKEVHFHVS | 0.997
13 | DDHKVEHVNRLFETNNPDKLAKNVDPNADNQVGDKRYHGRQKIHTFLKNMYTRVDHVDIHRISVNGNRLQIDATYDIDGRRFYADMRFRLHNGRIKEVRVRFTNEEQDKVVKEAVK | 0.985
14 | DDHLRQVMEELKKAEDTGNPDRYVELADEDVEVHVGDTTLKGRTQHREEIKTQKDQSRLSINIQHVDVDGDKVRVQFVFENDHNGKPSTDRQQFVVRAHNGRVKRIENEERR | -0.114
15 | DDHLRREAKKMVKNYVKGDPDKVMEYVDPNATVNVGDKNIRGRESVREWVKTQKDQMRIQLTSMRVDASNGRVKISLDFRLNDNGKPDRVTVDIKLNMRNGRVQHVNIQTHK | 0.279
16 | DDHNARSALTIAFTAIRQGDEQKIRELMDKHVDVHVGDEVVHGRDQVATRLRKLKERVDHIQVKSMSVQGDTLDLNIIFRINGKDLEIKFDIRFRNGRVESMTVRVTDEKKYKDIHQ | 0.475
17 | DDHNIQRLKQFLDDWERGDPDKLKDLVDPNVEFRIGEREVHGMDHWATQLTEERRDQRFQLKDMRVQERPGRVEVRLDYEQDHNGKPERQIVKFVAQATNGELKWVNWTRDS | -0.017
18 | DDHNRAENFLKEVMRAMKNNDPQTLKELADPNVTVEVGDKEIHGQEEFHKWAETLNHNVDSLDIQFKEIRLRPGRAEAIVLITEDHNGRKDRKELNMVARVKGDDIHVVSMHQK | 0.828
19 | DDHNVRLAKKFREAYETGDEETVKSMADPNAHYHVGDKRITGRERQVRKMTRERRDMRVQVESIRYSNRNGRVDVKIVEVRNDNGHPKRMRIVLHVNFQNGKAKEFQIEDQE | 0.226
20 | DDHNVRVMREIQKAIEKNDEKRFKELVDPNVRVRIGDNLIHGRDNVAKELKREMDHMRKNIRSMSIDDEGDHVVINIEYEQNENGHPDTNRVQVSAELHNGKLKEMHISSRQ | 1.02
21 | DDHRAHQMAEFVIDAIRTGDPDKFVNQADENVRVVIGDKQVQGHEEAREALKSLKDQADHVSLTDFRVHGDKVEVVFEARVNGVDLVMKVYARIHNGHLVMMSIDVTDPRKQKKADS | 1.11
22 | DDHRAKQAVKAWTDNNPDNLRELFDKNVRVEIGEFTLHGREDAQSMVQRLHSRADHVEYKDIKVSNGRINIDVVYMVDGHRVRATIHLTIENGRLKSMEVRFTSEEDQKKAKRAFE | 0.09
23 | DDHREEQMNRVAETGNFKHLASQLDKDATAFYGDKTVEGREHIQENLNRLHSHIDHIEYKKVEVKNGKVDVDFTAVINGTTFRAQMRLVVHNGRIKTISMRARDEKDKKLIHEWLS | 0.83
24 | DDHSSARKFADEFREMMKTGDSTKADELFDPNVRVEVGDKRYHGREQAVDWIRHLVDRYDHIEIRIDHITVRGDRISIVFTVHYEKNGETTYDRYVMVAVDRNGRAQIKMLRKG | 2.51
25 | DDHVLREVMKSWKDNDWKTLQDQVDPNARMKVGDNKVSGREQIEDLLQHLQDRIDHVEIKSMQHQGDKANFRFQFVVNGQRVDVVARVKAHNGKIQEWQVEVRNDELKEQLERAQK | 0.628

Row | Sequence | protease stability score
26 | DDHVNREINRLMEKNDEQKFVDQADENASMDVGNKRYHGRDAAIKAARAWRKAADHVRIKRFEYSNGKIIIVVVVQFNGHRYDVTIDIVHHNGKVKEFVVRFTDPEQERDFRDWLG | 0.509
27 | DDKAADDARRALEQLNTGNEERAATYMDPNVSVRIGDKSVHGREEIQRSEERKRRRLEVQYKDYRVSVENGEFTASYDYTNHHNGRPQRVKVEVHISADNGKIKSVQQHEDK | 0.213
28 | DDKDADHVQRALRNLERGDPEKADTMFDPNAHVRIGDKEIHGREQLNHWVERVHTEMRQRWDFKDVNEHENHVQIDVSITTEKNGQPRSKHVKLNARVNNGTVTSVEQQDDG | -0.164
29 | DDKDAKRLLTLWHQIEEGNPEEVQKMMDENVHVSIGDKEVHGREEDARQRKEEVDSMRVSLKIDHYSDNNGRIVVDATQENETNGKPSTKRFVIEARMDNGTLKRLQIEDDK | 0.097
30 | DDKDIQEIAHEINHAWEEGDSKRFADLLSENARVDVGDKDYEGREFNKKWMKDIRDRVDHLEIDHVSAKGNTVEVTMVMNINGRNATVVVEYTFHNGQVRHAQLKFTSEEDKRKFHG | 0.453
31 | DDKDLKDVAEKVMHAVQNGDPHEARKMFDKDARIIVGDTEVHGRSNIMHLMTEFRKRVDHAEIKDLTVNGEDVRIDMVLDINGKKHRRTWEVRVSNGRARHAHLDPKDLERQSK | 0.481
32 | DDKDLRRVADVMETNDPDRLADLVDENARFIYGDKTYKGEKEATKVWETLYHQVDHKQIHTWDVRGDKLSVKMEMVVNGHDIQVHVRVDVRNGRIKQVELRATNEDDQRFIKRIWG | 0.218
33 | DDKDMEQIKRLIEQLLTGDPDSAKRNFDENARVTIGDKTIEGRDDMRRWVDTVHKHAQLEITHMTVKVHGDKVKVNMDARRTHNGRPERATFKMDVELQNGKVKNQSIEIRK | 0.223
34 | DDKDQHEEVEKFARNVVSGNSDELRKQMDKDVRANVGDKTLRGREEVADFWKHMRDRIDHAEIKEIRFHNGEARIVMQFVHNGRTKQINIVMEFHDGHVKRLRVEDG | 2.73
35 | DDKDRRRVAEEVVRAFVQNDPDRLVELADEDARVHYGDRELHGREKARHMLRKFKEQVDTATYQDFNVHGDKVDIKLTAHFNGRTHTQTVIVVIHNGRIKFIEIRSS | 1.22
36 | DDKDVEKAVRVMQTNDPDKYERMLDEDVSMVVGDQTYHGRETVNKVYKHYLERVDHIKITRYTIRNGVATVRYVVEWNGKSADVVVHVEVHNGRAKRFEYDVRDSEDKKNMEEMIK | 0.358
37 | DDKEAHKRARQLVRIVQTGNESDVRKLFDKNARVVIGDKTFHGRENVQKAVREMRERVDHVQVHRVRAQGNKVRALVQYDINGKQEHYNFDMTFHNGRAKSMVVKES | 0.812
38 | DDKEARKFAKDYVDAMKTGDEKRIEEMVDPNVSFQIGDQTYHGREQLKQALRSRRHHADHVQVDHVEAQGDKIDIDVQFNINGRDDKVKIKIRVHNGRIKEVVIEKK | 0.99
39 | DDKEEAESIAKTLQKILDTGNEEDYLNMADEDVEINIGDKHYRGREEFLKWVQKMTRQVDHLRIDVKSVEVSGDKAHIQYHLELNHDGKNETHKLVMVARKSNGRLTIKKITHQ | 1.19
40 | DDKEKAEKFLTKWVEAIKTGNEEQLNELADPNVRFKYGDRVIHGREQQAKHNKELRERADRMEFRVDDVDIRPGKVVVHARYTVNINGKEETHQYTATADVKNGRLQITEQQNS | -0.092
41 | DDKERDHLRKLMEEGDFTEIAENADPNAKFVIGDKEIHGREQFQTVAKRRQERVDHFDVKRVSVSGNKVRATMVMVVDGEKIHFTVIIEIDNGRVKSVRLQYRDETVKRQIEEAMS | -0.213
42 | DDKEVRRNAEIALKALRTGDEDDAMEQADEDAKMVIGDKEVHGREKLREAVKDFKEEADHVQVRHFEVQNGRVNAEMEVDVNGQKQIYVMHVEVHNGKIKEINIQHK | 0.787
43 | DDKHAEEVAELMTRNNFKQLAHQADPNVKIVVGEKKWHGREQMRTFMKILTKRVDHLNIQSYDVDNGRVKIDYVVNIDGQEIHVRVEIEFKNGRIQRYVLRATSDENQKELNKALS | 0.08
44 | DDKHIQTQAERIAKALQTGDPDKFKNEMRKDVQVDVGDKRLHGREEVAKWMEDKHKRADRITYDSVEASGDKITMTVVIQINGRKKHFQFEATQSNGKIVHARERDQ | -0.393
45 | DDKHKVEQLLRRADDALRTNDERKYIEMVDKDVRITVGDKQIHGKDEAVKFLRTLHNTYDHVQIRVESIENDGEKFKVIVQITAKHNGKETSHTLSFDAQRHNGQVRVKHASMG | 1.21
46 | DDKKAQDFARKFADNLRTGNERQWEKMFDENVRIKYGDKTLHGREVARKEARTFHEQVDHMEVRSITAQGNQLVIMFEVKHNGRTDRMVWRAKVENGKIQHQTVTSQ | -0.084
47 | DDKKQQNMAKHFADAIRRGDPKTFSDLADPNVTAQYGDKSIHGKDEMREFWKQYHDRVDSVDVEKFSVRGDKIDIKMRAVVDGKDRVLDLDIQLHNGRATHIKVNPDQVREMDK | 1.38
48 | DDKKRVTQVFREWREALQTGNEEELHKQADKDVKFDVGESEFHGREKFVKHVQERLTQVDHLDIKMHSLKVDNGKADVSVIYRQNHNGKEDETTAVIIMTLSNGHAKIDTVKYG | -0.195
49 | DDKKVHKAANRFVEMFRTGNPDDLHKQIDKDAHATVGDKTYRGRTHVVRQIIEMVERVDHVEVKSISVDGDHAKIDMVLRHDGQEERVDVVMRVHNGRFKSIEFQEQ | 0.512
50 | DDKKVRLARSWMQNVRENNEERLQKLIDPNAKVRIGNKVVNGDEEFRRQVKHRKEHMRLDVEIESMTFQGDHVSATYVFRQNVNGTPYSDRVEVHIKMENGRIKHIDARVPEEKLRELSS | -0.106
